Data on three molecules can be found in patent US20140087995A1 (published 2014).

Numbered stars: 1 amine (or outer) side, 2 acyl side, 3 side chain; on linkers, the order of the positions; unused ones are H or OH. Bridge positions count the residues as written; N and C are the ends. * marks the point of attachment. C20 diacid = O=C(O)CCCCCCCCCCCCCCCCCCC(=O)*; γGlu = O=C(O)[C@H](CCC(=O)[*:2])N[*:1]

Sequences and labels used below:
T1: human calcitonin receptor (human, UniProt P30988 25-474)
T1 construct: whole, on cells; Assay used cell membranes, not intact cells; also called hCTR; hCT
T1 sequence (looked up): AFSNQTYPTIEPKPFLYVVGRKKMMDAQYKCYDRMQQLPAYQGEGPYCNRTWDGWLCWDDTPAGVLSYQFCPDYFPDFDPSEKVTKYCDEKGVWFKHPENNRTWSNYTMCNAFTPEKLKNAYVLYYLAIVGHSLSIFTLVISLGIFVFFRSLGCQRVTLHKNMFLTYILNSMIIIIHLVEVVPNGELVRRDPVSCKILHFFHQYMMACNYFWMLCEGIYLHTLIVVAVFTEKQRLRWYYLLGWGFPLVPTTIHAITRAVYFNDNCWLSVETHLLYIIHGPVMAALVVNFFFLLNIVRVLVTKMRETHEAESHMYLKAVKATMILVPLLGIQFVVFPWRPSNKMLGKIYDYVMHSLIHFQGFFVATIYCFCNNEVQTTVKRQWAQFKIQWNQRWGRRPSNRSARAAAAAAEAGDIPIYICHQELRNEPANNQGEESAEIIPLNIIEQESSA

T2: human amylin receptor (amylin 3(a) receptor: human calcitonin receptor with RAMP-3) (human, UniProt P30988 25-474; O60896 24-148)
T2 construct: whole, on cells; Assay used cell membranes of the Amylin 3(a)/CRE-luc BHK cells, not intact cells; also called hAmylin-R; hAmylinR
T2 sequence (looked up) 1: T1 sequence (looked up)
T2 sequence (looked up) 2: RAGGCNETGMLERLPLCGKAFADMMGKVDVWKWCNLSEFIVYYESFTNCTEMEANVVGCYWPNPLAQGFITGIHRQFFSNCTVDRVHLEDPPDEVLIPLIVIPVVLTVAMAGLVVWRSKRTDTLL

B1: N^-1-[(4S)-4-carboxy-4-(19-carboxynonadecanoylamino)butanoyl]-Gly[Arg1,Ala14,Arg17,Pro21,Pro27,His34]-h-amylin (peptide)
peptide: {C20 diacid-γGlu}-GRCNTATCATQRLAAFLRHSSPNFGAIPSSTNVGHNTY-NH2
modifications: disulfide 3-8
SMILES: CC[C@H](C)[C@H](NC(=O)[C@H](C)NC(=O)CNC(=O)[C@H](Cc1ccccc1)NC(=O)[C@H](CC(N)=O)NC(=O)[C@@H]1CCCN1C(=O)[C@H](CO)NC(=O)[C@H](CO)NC(=O)[C@H](Cc1c[nH]cn1)NC(=O)[C@H](CCCNC(=N)N)NC(=O)[C@H](CC(C)C)NC(=O)[C@H](Cc1ccccc1)NC(=O)[C@H](C)NC(=O)[C@H](C)NC(=O)[C@H](CC(C)C)NC(=O)[C@H](CCCNC(=N)N)NC(=O)[C@H](CCC(N)=O)NC(=O)[C@@H](NC(=O)[C@H](C)NC(=O)[C@@H]1CSSC[C@H](NC(=O)[C@H](CCCNC(=N)N)NC(=O)CNC(=O)CC[C@H](NC(=O)CCCCCCCCCCCCCCCCCCC(=O)O)C(=O)O)C(=O)N[C@@H](CC(N)=O)C(=O)N[C@@H]([C@@H](C)O)C(=O)N[C@@H](C)C(=O)N[C@@H]([C@@H](C)O)C(=O)N1)[C@@H](C)O)C(=O)N1CCC[C@H]1C(=O)N[C@@H](CO)C(=O)N[C@@H](CO)C(=O)N[C@H](C(=O)N[C@@H](CC(N)=O)C(=O)N[C@H](C(=O)NCC(=O)N[C@@H](Cc1c[nH]cn1)C(=O)N[C@@H](CC(N)=O)C(=O)N[C@H](C(=O)N[C@@H](Cc1ccc(O)cc1)C(N)=O)[C@@H](C)O)C(C)C)[C@@H](C)O
B2: N^-1-[(4S)-4-carboxy-4-(19-carboxynonadecanoylamino)butanoyl]-Gly[Arg1,Ala14,Arg17,Pro21,Pro27,Pro34]-h-amylin (peptide)
peptide: {C20 diacid-γGlu}-GRCNTATCATQRLAAFLRHSSPNFGAIPSSTNVGPNTY-NH2
modifications: disulfide 3-8
B3: N^-1-[(4S)-4-carboxy-4-(19-carboxynonadecanoylamino)butanoyl]-Gly[Arg1,His14,Arg17,Pro21,Pro27,Pro34]-h-amylin (peptide)
peptide: {C20 diacid-γGlu}-GRCNTATCATQRLAHFLRHSSPNFGAIPSSTNVGPNTY-NH2
modifications: disulfide 3-8
SMILES: CC[C@H](C)[C@H](NC(=O)[C@H](C)NC(=O)CNC(=O)[C@H](Cc1ccccc1)NC(=O)[C@H](CC(N)=O)NC(=O)[C@@H]1CCCN1C(=O)[C@H](CO)NC(=O)[C@H](CO)NC(=O)[C@H](Cc1c[nH]cn1)NC(=O)[C@H](CCCNC(=N)N)NC(=O)[C@H](CC(C)C)NC(=O)[C@H](Cc1ccccc1)NC(=O)[C@H](Cc1c[nH]cn1)NC(=O)[C@H](C)NC(=O)[C@H](CC(C)C)NC(=O)[C@H](CCCNC(=N)N)NC(=O)[C@H](CCC(N)=O)NC(=O)[C@@H](NC(=O)[C@H](C)NC(=O)[C@@H]1CSSC[C@H](NC(=O)[C@H](CCCNC(=N)N)NC(=O)CNC(=O)CC[C@H](NC(=O)CCCCCCCCCCCCCCCCCCC(=O)O)C(=O)O)C(=O)N[C@@H](CC(N)=O)C(=O)N[C@@H]([C@@H](C)O)C(=O)N[C@@H](C)C(=O)N[C@@H]([C@@H](C)O)C(=O)N1)[C@@H](C)O)C(=O)N1CCC[C@H]1C(=O)N[C@@H](CO)C(=O)N[C@@H](CO)C(=O)N[C@H](C(=O)N[C@@H](CC(N)=O)C(=O)N[C@H](C(=O)NCC(=O)N1CCC[C@H]1C(=O)N[C@@H](CC(N)=O)C(=O)N[C@H](C(=O)N[C@@H](Cc1ccc(O)cc1)C(N)=O)[C@@H](C)O)C(C)C)[C@@H](C)O

The target of one experiment is T1, human calcitonin receptor. Nature of the experiment: SPA competition with 125I-calcitonin on membranes of BHK cells with human calcitonin receptor (Assay VII). In outline: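 BHK hCTR membranes 35 ng/μL + SPA beads 0.05 mg/well; buffer 50 mM Hepes pH 7.4, 1 mM CaCl2, 5 mM MgCl₂, 0.1% OA, 0.02% Tween20. 120 min, 25° C., shaking. Scintillation count; IC50 by one-site binding competition.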
In general, IC50 refers to the concentration that inhibits the measured activity by half. For the molecule B1, the IC50 worked out at 29.2 nM.

Turning to B2, the IC50 turned out to be 3 nM.

On to B3, for which the IC50 amounted to 7.87 nM.

A further experiment addresses T1, human calcitonin receptor. The experiment can be described thus: ratio IC50 hCTR / IC50 hAmylin-R (reference: human amylin receptor), SPA competition assays. In outline:
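Membranes (35 ng/μL final) + SPA beads, 50 mM Hepes pH 7.4 buffer with 1 mM CaCl2, 5 mM MgCl₂, 0.1% OA, 0.02% Tween20; 120 min, 25° C, shaking; centrifuged, counted; IC₅₀ by one-site binding competition.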
With B1, the “Ratio hCT/hAmylin binding” value came to 68.6.

Turning to B2, the “Ratio hCT/hAmylin binding” value came to 26.5.

B3: the “Ratio hCT/hAmylin binding” value was 36.2.

In a further experiment the target is T2, human amylin receptor (amylin 3(a) …). The experiment can be described thus: SPA competition with 125I-rat amylin on membranes of BHK cells with human calcitonin receptor and RAMP-3 (Assay V). The procedure, abridged:
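SPA beads + BHK amylin 3(a)/CRE-luc membranes, 35 ng/μL final; buffer 50 mM Hepes pH 7.4, 1 mM CaCl2, 5 mM MgCl₂, 0.1% OA, 0.02% Tween20. 120 min, 25° C, shaken; scintillation count. IC₅₀ by one-site binding competition fit, taken as receptor affinity.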
With B1, the 50% inhibitory concentration (IC50) is 0.426 nM.

In the case of B2, the 50% inhibitory concentration (IC50) came to 0.114 nM.

In the case of B3, the IC50 is 0.217 nM.
